Experimental data: PMC5773547

Molecular target: His-tagged recombinant CHIKV nsP2-NT (1-454) (Chikungunya virus strain S 27)

His-tagged recombinant CHIKV nsP1-WT (1-535) (from UniProt Q8JUX6 1-535) (enzyme)
ATPase activity of nsP2-NT (0.2 μg) with nsP1-WT (0.6 μg) against nsP2-NT alone, TLC assay with [γ-P32] ATP, release of free Pi: 1.5 fold | ATPase activity of nsP2-NT (1 μg) with nsP1-WT (1 μg), colorimetric malachite green assay, Pi release (approximately 86 μM for nsP2-NT alone): 174 µM
